Measurements from patent publication US11827701B2, “IL-6 binding molecules” (argenx BV, priority 2012, dated 2023).

Columns and labels:
Format in all cases: binding
cynomolgus monkey IL-6 = molecular target: T1, cynomolgus monkey IL-6 (Macaca fascicularis, UniProt P79341); test: Surface plasmon resonance (Biacore), cynomolgus monkey IL-6; settings: for KA / ka / kd: cy/cyno, periplasmic fractions
T1 construct: His
Experimental: (§1) VL chain shuffling was used to improve the affinity of the Fabs 17F10, 18C7, 18C9, 18C11, 20A4, 29B11, 16D2 and 28A6. In this method, the heavy chain of these clones (as a VHCH1 fragment) was reintroduced into the primary phagemid-light chain library (see Example 1). Affinity selections were performed to select for chain shuffled Fabs with an improved affinity for IL-6. The binding kinetics of chain shuffled Fabs were evaluated by surface plasmon resonance (Biacore) using both bacterially and eukaryotically produced human IL-6, and cynomolgus monkey IL-6 (Tables 5-7). The VH and VL amino acid sequences of exemplary IL-6-specific Fabs selected by the VL chain shuffling method are set forth in Table 14 below.

[1] = molecular target: T2, eukaryotically produced human IL-6 (Homo sapiens, UniProt P05231); test: Surface plasmon resonance (Biacore), eukaryotically produced human IL-6 coated on CM5 chip; settings: for KA / ka / kd: euk, periplasmic fractions
T2 construct: purchased Humanzyme HZ-1044; host or cells: Human Embryonic kidney cells
T2 sequence (P05231 30-212): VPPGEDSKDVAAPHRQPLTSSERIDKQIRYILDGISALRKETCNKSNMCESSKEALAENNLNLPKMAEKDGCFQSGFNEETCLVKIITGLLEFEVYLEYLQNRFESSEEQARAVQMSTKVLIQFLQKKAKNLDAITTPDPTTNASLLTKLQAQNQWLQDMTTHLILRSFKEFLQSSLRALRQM
Experimental: (§2) The binding kinetics of IL-6-specific Fabs that were able to cross-compete with the B-E8 antibody was assessed using surface plasmon resonance (Biacore). Specifically, biotinylated (prokaryotic) IL-6 was captured on a streptavidin biacore sensor chip (CM5-SA) and different concentrations of purified Fabs were injected during 3 minutes following by a 5 minute wash with buffer. From the washing phase the off-rate (kd) was determined, while from the injection phase the on-rate (ka) was calculated using the concentration and off-rate as parameters. […] The binding kinetics of antagonistic purified Fabs (Table 3) and periplasmic fractions of Fab-expressing bacteria (Table 4) were also evaluated by surface plasmon resonance (Biacore) using both bacterially and eukaryotically produced human IL-6 directly coated on a CM5 chip. The Fabs tested had off-rates between 6×10^−4 and 2×10^−5 s^−1.
as §1
(§3) VH chain shuffling was also used to improve the affinity of the Fab 24D10. In this method, the light chain of 24D10 was reintroduced into the primary phagemid-heavy chain library (see Example 1) and selected using an off-rate assay. In this type of selection, the phage were allowed to bind to antigen on a substrate for 1.5 to 2 hours. At round 2, after 15 washes with PBS-Tween, an additional wash was performed with the presence of excess soluble IL-6. […] This procedure avoids re-binding of such phage to the coated target. […] The binding kinetics of chain shuffled Fabs and the benchmark antibodies, BE8 and GL18, were evaluated by surface plasmon resonance (Biacore) using both bacterially and eukaryotically produced human IL-6 (Tables 8 and 9). The VH and VL amino acid sequences of exemplary IL-6-specific Fabs selected by the VH chain shuffling method are set forth in Table 14 below. […]

[2] = molecular target: biotinylated (prokaryotic) IL-6 (Homo sapiens, UniProt P05231); test: Surface plasmon resonance (Biacore), biotinylated IL-6 captured on streptavidin sensor chip; settings: purified Fab
Chain of biotinylated (prokaryotic) IL-6 (P05231 30-212): as above
Experimental: as §2

[3] = molecular target: T3, bacterially produced human IL-6 (Homo sapiens, UniProt P05231); test: Surface plasmon resonance (Biacore), bacterially produced human IL-6 coated on CM5 chip; settings: for KA / ka / kd: bact, periplasmic fractions
T3 construct: His
T3 sequence (P05231 30-212): as above
Experimental: as §2, §1, §3

T1 sequence (P79341 28-212): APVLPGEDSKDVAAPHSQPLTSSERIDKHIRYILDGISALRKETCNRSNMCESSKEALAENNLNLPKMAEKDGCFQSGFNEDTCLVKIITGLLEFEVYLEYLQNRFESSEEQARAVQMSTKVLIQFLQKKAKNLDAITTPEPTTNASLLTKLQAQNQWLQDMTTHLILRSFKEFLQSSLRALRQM

| KA (cynomolgus monkey IL-6; 29B11 chain shuffled) [M⁻¹] | ka (cynomolgus monkey IL-6; 29B11 chain shuffled) [M⁻¹ s⁻¹] | kd (cynomolgus monkey IL-6; 29B11 chain shuffled) [s⁻¹] | KA ([1]; 29B11 chain shuffled) [M⁻¹] | ka ([1]; 29B11 chain shuffled) [M⁻¹ s⁻¹] | kd ([1]; 29B11 chain shuffled) [s⁻¹] | KA ([3]; 29B11 chain shuffled) [M⁻¹] | ka ([3]; 29B11 chain shuffled) [M⁻¹ s⁻¹] | kd ([3]; 29B11 chain shuffled) [s⁻¹] | KA (cynomolgus monkey IL-6; 28A6 chain-shuffled) [M⁻¹] | ka (cynomolgus monkey IL-6; 28A6 chain-shuffled) [M⁻¹ s⁻¹] | kd (cynomolgus monkey IL-6; 28A6 chain-shuffled) [s⁻¹] | KA ([1]; 28A6 chain-shuffled) [M⁻¹] | ka ([1]; 28A6 chain-shuffled) [M⁻¹ s⁻¹] | kd ([1]; 28A6 chain-shuffled) [s⁻¹] | KA ([3]; 28A6 chain-shuffled) [M⁻¹] | ka ([3]; 28A6 chain-shuffled) [M⁻¹ s⁻¹] | kd ([3]; 28A6 chain-shuffled) [s⁻¹] | Molecule | other results |
| --- | --- | --- | --- | --- | --- | --- | --- | --- | --- | --- | --- | --- | --- | --- | --- | --- | --- | --- | --- |
| 1.51e+08 | 113000 | 0.000746 | 1.83e+09 | 187000 | 0.000102 | 1.91e+09 | 251000 | 0.000131 |  |  |  |  |  |  |  |  |  | 29B11: antagonistic IL-6-specific Fab clone from immunized llama (antibody, listed as Lama glama, V domains shown) VH: EVQLVESGGGLVQPGGSLRLSCAASGFTFSSYAMSWVRQAPGKGLEWVSRISSGGISTYYADSVKGRFTISRDNAKNTLYLQMNSLKPEDTAVYYCVRYAWGVQWAFDFWGQGTQVTVSS VL: QSVLTQPPSVSGSPGQTVTISCAGTSEDVGYGNYVSWYQQLPGMAPKLLIYDVNKRASGIADRFSGSKSGNTASLTISGLQSEDEADYYCASYRRTIDNIFGGGTHLTVLG | KA [2]: 4.36e+07 M⁻¹; Rmax [2]: 23.3 RU; ka [2]: 130000 M⁻¹ s⁻¹; kd [2]: 0.00298 s⁻¹ |
| 1.39e+09 | 468000 | 0.000336 | 6.34e+09 | 414000 | 6.53e-05 | 7.28e+09 | 489000 | 6.72e-05 |  |  |  |  |  |  |  |  |  | 55E2b: 29B11 chain shuffled Fab, periplasmic fraction (antibody, V domains shown) VH: EVQLVESGGGLVQPGGSLRLSCAASGFTFSSYAMSWVRQAPGKGLEWVSRISSGGISTYYADSVKGRFTISRDNAKNTLYLQMNSLKPEDTAVYYCVRYAWGVQWAFDFWGQGTQVTVSS VL: AQSVLTQPPSVSGSPGKTVTISCAGTSSDVGYGNYVSWYQQLPGMAPKLLIYDVNKRASGIADRFSGSKFANTASLTISGLQSEDEADYYCASYKRGDNAVFGGGTKLTVLG |  |
| 4.1e+08 | 180000 | 0.00044 |  |  |  | 1.43e+09 | 262000 | 0.000184 |  |  |  |  |  |  |  |  |  | 48C10: 29B11 chain shuffled Fab, periplasmic fraction (antibody, listed as Lama glama, V domains shown) VH: EVQLVESGGGLVQPGGSLRLSCAASGFTFSSYAMSWVRQAPGKGLEWVSRISSGGISTYYADSVKGRFTISRDNAKNTLYLQMNSLKPEDTAVYYCVRYAWGVQWAFDFWGQGTQVTVSS VL: AQSVLTQPPSVSGSPGQTVTISCAGTSEDVGYGNYVSWYQQLPGMAPKLLIYDVNKRASGIADRFSGSKSGNTASLTISGLQSEDEADYYCASYRRTIDNIFGGGTHLTVLG |  |
| 1.25e+09 | 475000 | 0.000381 | 5.55e+09 | 440000 | 7.93e-05 | 7.6e+09 | 561000 | 7.38e-05 |  |  |  |  |  |  |  |  |  | 55C1a: 29B11 chain shuffled Fab, periplasmic fraction (antibody, V domains shown) VH: EVQLVESGGGLVQPGGSLRLSCAASGFTFSSYAMSWVRQAPGKGLEWVSRISSGGISTYYADSVKGRFTISRDNAKNTLYLQMNSLKPEDTAVYYCVRYAWGVQWAFDFWGQGTQVTVSS VL: ALNFMLTQPPSVSGSPGKTVTISCAGTSSDVGYGNYVSWYQQLPGTAPKLLIYNVNKRASGITDRFSGSKSGNTASLTISGLQSEDEADYYCASYRTGDNAAFGGGTKLTVLG |  |
| 6.48e+08 | 851000 | 0.00131 | 3.54e+09 | 849000 | 0.00024 | 3.56e+09 | 1.12e+06 | 0.000315 |  |  |  |  |  |  |  |  |  | 47C2 (R4): 29B11 chain shuffled Fab, periplasmic fraction (antibody, listed as Lama glama, V domains shown) VH: EVQLVESGGGLVQPGGSLRLSCAASGFTFSSYAMSWVRQAPGKGLEWVSRISSGGISTYYADSVKGRFTISRDNAKNTLYLQMNSLKPEDTAVYYCVRYAWGVQWAFDFWGQGTQVTVSS VL: ALSYDLTQPPSVSGSPGKTVTISCAGTSSDVGYGNYVSWYQQLPGMAPKILIYDVNKRASGIADRFSGSKSGNTASLTISGLQSEDEADYYCASYRRGETIVFGGGTHLTVLG |  |
|  |  |  |  |  |  |  |  |  |  |  |  |  |  |  |  |  |  | 17F10: antagonistic IL-6-specific Fab clone from immunized llama (antibody, listed as Lama glama, V domains shown) VH: EVQLQESGPGLVKPSQTLSLTCTVSGGSIATSYYAWSWIRQPPGKGLEWMGVIDYDGDTYYKPSLKSRTSISRDTSKNQFSLQLSSVTPEDTAVYYCARAGLGDSYYLGTYYAMDYWGKGTLVTVSS VL: QAGLTQPPSVSGSPGKTVTISCAGTTSDVGTGNFVSWYQQLPGMAPKLLIYDVNKRASGIADRFSGSKSGNTASLTISGLQSEDEADYYCASYRSLNNVVFGGGTHLTVLG | Koff HIS-cyIL-6 (cynomolgus monkey IL-6; purified chain-shuffled Fabs): 0.00078 s⁻¹; Koff eukIL-6 ([1]; purified chain-shuffled Fabs): 0.00077 s⁻¹; Koff HIS-huIL-6 ([3]; purified chain-shuffled Fabs): 0.00088 s⁻¹ |
|  |  |  |  |  |  |  |  |  | 1.77e+09 | 144000 | 8.17e-05 | 1.59e+09 | 101000 | 6.36e-05 | 2.78e+09 | 188000 | 6.76e-05 | 55A11d: 28A6 chain-shuffled Fab, periplasmic fraction (antibody, V domains shown) VH: QVQLVESGGGLVQPGGSLRLSCAASGFTFSNYYMTWVRQAPGKGLEWVSSIYSFSGDTAYADSVKGRFTISRDNAKNTLYLQMNSLKSEDTAVYYCTRNLGGVVVTTNGYDYWGQGTQVTVSS VL: DIQMTQSPSSLPTSLGDSVTITCQASQSISDELSWYQQKPGQTPKLLIYGASRLQTGVPSRFSGRGSGTSFTLTISGLEAEDLATYYCLQGYSWPFMFGQGTKVELK |  |
|  |  |  |  |  |  |  |  |  | 2.1e+09 | 145000 | 6.88e-05 | 2.62e+09 | 146000 | 5.59e-05 | 3.18e+09 | 193000 | 6.09e-05 | 55E10g1: 28A6 chain-shuffled Fab, periplasmic fraction (antibody, V domains shown) VH: QVQLVESGGGLVQPGGSLRLSCAASGFTFSNYYMTWVRQAPGKGLEWVSSIYSFSGDTAYADSVKGRFTISRDNAKNTLYLQMNSLKSEDTAVYYCTRNLGGVVVTTNGYDYWGQGTQVTVSS VL: DIQMTQSPSSLPTSLGDSVTITCQASQSISDELSWYQQKPGQTPKLLIYGASKLQTGVPSRFSGSGSGTSFTLTISGLEAEDLATYYCLQGYSWPFMFGQGTKVELK |  |
|  |  |  |  |  |  |  |  |  | 1.18e+09 | 112000 | 9.46e-05 | 1.56e+09 | 106000 | 6.8e-05 | 2.93e+09 | 206000 | 7.04e-05 | 48H1g2, R4: 28A6 chain-shuffled Fab, periplasmic fraction (antibody, V domains shown) VH: QVQLVESGGGLVQPGGSLRLSCAASGFTFSNYYMTWVRQAPGKGLEWVSSIYSFSGDTAYADSVKGRFTISRDNAKNTLYLQMNSLKSEDTAVYYCTRNLGGVVVTTNGYDYWGQGTQVTVSS VL: DVVMTQSPSSLPTSLGDSVTITCQASQSISDELSWYQQKPGQTPKLLIYGASKLQTGVPSRFSGSGSGTSFTLTISGLEAEDLATYYCLQGYSWPFMFGQGTKVELK |  |
|  |  |  |  |  |  |  |  |  | 3.2e+09 | 285000 | 8.9e-05 | 3.1e+09 | 201000 | 6.47e-05 | 3.29e+09 | 228000 | 6.94e-05 | 55C11f: 28A6 chain-shuffled Fab, periplasmic fraction (antibody, V domains shown) VH: QVQLVESGGGLVQPGGSLRLSCAASGFTFSNYYMTWVRQAPGKGLEWVSSIYSFSGDTAYADSVKGRFTISRDNAKNTLYLQMNSLKSEDTAVYYCTRNLGGVVVTTNGYDYWGQGTQVTVSS VL: DIQLTQSPSSLSASLGDSVTITCQASQSISDELSWYQQKPGQTPKLLIYGASKLQTGVPSRFSGSGSGTSFTLTISGLEAEDLATYYCLQGYRWPFMFGQGTKVELK |  |
